Results reported in PMC6499999.

What was measured:
[1] = target: RelSt3 relaxase encoded by ICESt3 from Streptococcus thermophilus (Streptococcus thermophilus (ICESt3)); assay: cross-linking; 5 ug RelSt3 in 20 uL with 0.001 to 0.1% glutaraldehyde, 15 min at room temperature, stopped with glycine; 10% SDS-PAGE, Coomassie
[2] = target: RelSt3 relaxase encoded by ICESt3 from Streptococcus thermophilus (Streptococcus thermophilus (ICESt3)); assay: SEC; calibrated Superdex 200 gel filtration, final step of purification; single elution peak at 72.4 mL, apparent molecular weight about 88 kDa against a predicted 48.5 kDa
[3] = target: RelSt3 relaxase encoded by ICESt3 from Streptococcus thermophilus (Streptococcus thermophilus (ICESt3)); assay: AUC; sedimentation velocity at 1 and 5 uM in 20 mM Tris-HCl pH 7.5, 500 mM NaCl, 25 °C, 42,000 rpm, absorbance at 280 nm; c(s) analysis with Sedfit

Measured: stoichiometry N

RelSt3 relaxase encoded by ICESt3 from Streptococcus thermophilus (enzyme)
2: all assays above
